Test results taken from publication PMC9848473 (2023).

Experiments:
Experiment in all cases: ITC
[1] = target: RelBs^NTD K290G (Bacillus subtilis)
[2] = target: RelBs^NTD Y279A (Bacillus subtilis)
[3] = target: DarB E74G/R75G (Bacillus subtilis, UniProt O31698 1-147, E74G | R75G)
[4] = target: DarB^E34R (Bacillus subtilis, UniProt O31698 1-147, E34R)

Kd [1]	Kd [2]	Kd [3]	Kd [4]	Binder
4 µM	45.1 µM			Bacillus subtilis DarB (natural protein) MISLQSDQLLEATVGQFMIEADKVAHVQVGNNLEHALLVLTKTGYTAIPVLDPSYRLHGLIGTNMIMNSIFGLERIEFEKLDQITVEEVMLTDIPRLHINDPIMKGFGMVINNGFVCVENDEQVFEGIFTRRVVLKELNKHIRSLNK
		8.9 µM	10.6 µM	Bacillus subtilis Rel N-terminal domain region (RelBs^NTD; residues 1 to 373) (domain or fragment) not shown
